Data: publication doi:10.1101/2023.04.13.536796

Molecular target: SEL1L S658P, endogenous, liver of knock-in mice (mouse (endogenous in liver)) (UniProt Q9Z2G6)
Experiment: co-IP

Sequence of UniProt Q9Z2G6 (Q9Z2G6 22-790, stated change not applied): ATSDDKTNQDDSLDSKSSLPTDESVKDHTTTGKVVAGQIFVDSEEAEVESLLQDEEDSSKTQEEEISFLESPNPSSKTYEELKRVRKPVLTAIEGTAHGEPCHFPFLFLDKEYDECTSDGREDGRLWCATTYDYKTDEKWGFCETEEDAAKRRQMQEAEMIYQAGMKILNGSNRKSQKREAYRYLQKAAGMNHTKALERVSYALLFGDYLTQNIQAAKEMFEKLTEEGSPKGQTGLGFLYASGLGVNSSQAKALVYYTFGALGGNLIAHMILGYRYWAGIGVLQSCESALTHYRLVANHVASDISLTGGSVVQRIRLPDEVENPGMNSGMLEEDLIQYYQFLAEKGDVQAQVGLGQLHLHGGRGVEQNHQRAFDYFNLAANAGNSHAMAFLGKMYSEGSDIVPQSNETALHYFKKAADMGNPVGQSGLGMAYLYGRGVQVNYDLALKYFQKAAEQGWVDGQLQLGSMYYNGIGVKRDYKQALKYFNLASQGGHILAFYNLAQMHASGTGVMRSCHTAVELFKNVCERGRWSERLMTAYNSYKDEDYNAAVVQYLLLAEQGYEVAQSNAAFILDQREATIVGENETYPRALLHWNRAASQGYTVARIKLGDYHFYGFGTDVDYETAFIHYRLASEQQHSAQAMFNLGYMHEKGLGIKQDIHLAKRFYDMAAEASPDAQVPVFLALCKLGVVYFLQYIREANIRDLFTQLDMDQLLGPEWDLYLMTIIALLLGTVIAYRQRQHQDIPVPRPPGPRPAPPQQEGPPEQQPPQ

HRD1, endogenous, mouse liver (from UniProt Q9DBY1 1-612) (natural protein)
fold reduction of co-precipitated HRD1 against WT livers: 5 fold
